This note sets out measurements from paper PMC7294096.

By stoichiometry N is commonly meant the number of molecules, sites or subunits per partner or assembly.

Several values for one entry are separate records, joined by “and”; a condition that tells them apart may be missing. Equal entries are not always repeated.

In this experiment the target is DnaJ heat shock protein family (Hsp40) member B6 (DNAJB6), wild type (human) (UniProt O75190). The experiment can be described thus: native MS; 37 μM DNAJB6 (plain or BS3-crosslinked) with 1 μM Aβ(1–40), 10 mM ammonium acetate pH 7; direct detection of DNAJB6 signals and complexes.

DnaJ heat shock protein family (Hsp40) member B6 (DNAJB6), wild type, O75190-2 1-241 (natural protein; other documents disagree on this pair), sequence (O75190 other isoform, or with tags, fused parts or gaps): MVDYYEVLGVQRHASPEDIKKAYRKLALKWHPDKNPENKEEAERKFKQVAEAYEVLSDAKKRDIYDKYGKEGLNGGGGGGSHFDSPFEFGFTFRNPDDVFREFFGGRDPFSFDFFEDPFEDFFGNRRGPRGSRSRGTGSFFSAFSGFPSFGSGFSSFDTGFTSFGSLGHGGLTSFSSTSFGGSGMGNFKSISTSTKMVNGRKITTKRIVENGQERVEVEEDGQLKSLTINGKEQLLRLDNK

Take “DnaJ heat shock protein family (Hsp40) member B6 (DNAJB6), wild type, O75190-2 1-241 (natural protein; other documents disagree on this pair)”: the stoichiometry N is 2 and 3.
